# Data: publication PMC12756002, “Mutations in Hsp40 co-chaperone change the canonical interdomain interactions stimulating LGMDD1 myopathy” (The Journal of Biological Chemistry, 2025)
# T1: Sis1-FLRnq1 complex (Sis1-WT premixed with denatured Rnq1) (yeast, UniProt P25294 1-352; P25367 1-405)
# T1 construct: also called Sis1-WT with client protein Rnq1
# T1 sequence (looked up) 1: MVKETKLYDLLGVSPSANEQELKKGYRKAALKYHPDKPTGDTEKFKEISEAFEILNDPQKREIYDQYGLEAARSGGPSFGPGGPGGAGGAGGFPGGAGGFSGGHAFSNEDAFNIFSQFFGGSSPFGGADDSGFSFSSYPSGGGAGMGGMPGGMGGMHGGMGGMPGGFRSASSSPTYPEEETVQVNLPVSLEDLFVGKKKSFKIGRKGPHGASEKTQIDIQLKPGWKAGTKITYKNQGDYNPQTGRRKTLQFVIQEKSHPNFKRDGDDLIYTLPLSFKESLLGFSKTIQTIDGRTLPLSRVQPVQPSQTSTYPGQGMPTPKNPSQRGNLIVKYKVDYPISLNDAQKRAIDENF
# T1 sequence (looked up) 2: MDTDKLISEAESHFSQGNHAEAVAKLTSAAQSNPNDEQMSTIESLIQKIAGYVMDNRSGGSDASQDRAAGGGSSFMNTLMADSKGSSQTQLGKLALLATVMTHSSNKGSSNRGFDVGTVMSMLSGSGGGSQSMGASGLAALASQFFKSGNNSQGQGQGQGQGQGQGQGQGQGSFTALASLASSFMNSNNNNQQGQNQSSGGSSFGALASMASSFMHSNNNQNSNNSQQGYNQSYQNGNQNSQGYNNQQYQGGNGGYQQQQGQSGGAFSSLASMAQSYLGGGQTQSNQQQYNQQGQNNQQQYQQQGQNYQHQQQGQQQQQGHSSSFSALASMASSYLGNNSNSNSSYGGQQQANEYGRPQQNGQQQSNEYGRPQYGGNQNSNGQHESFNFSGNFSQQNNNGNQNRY
# T2: Sis1-S49V premixed with denatured Rnq1 (yeast, UniProt P25294 1-352; P25367 1-405, S49V)
# T2 construct: also called Sis1-FLRnq1 complex (S49V)
# T2 sequence (looked up) 1: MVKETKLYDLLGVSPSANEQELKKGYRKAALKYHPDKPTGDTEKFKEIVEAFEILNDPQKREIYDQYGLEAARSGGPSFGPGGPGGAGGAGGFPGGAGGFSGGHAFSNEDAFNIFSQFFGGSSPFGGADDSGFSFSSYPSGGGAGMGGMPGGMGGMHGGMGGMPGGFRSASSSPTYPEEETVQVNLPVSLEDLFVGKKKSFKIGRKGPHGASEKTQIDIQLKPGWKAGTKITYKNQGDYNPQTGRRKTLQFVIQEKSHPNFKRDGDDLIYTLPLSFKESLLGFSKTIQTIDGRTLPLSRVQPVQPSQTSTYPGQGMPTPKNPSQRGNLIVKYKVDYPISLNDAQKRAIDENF
# T2 sequence (looked up) 2: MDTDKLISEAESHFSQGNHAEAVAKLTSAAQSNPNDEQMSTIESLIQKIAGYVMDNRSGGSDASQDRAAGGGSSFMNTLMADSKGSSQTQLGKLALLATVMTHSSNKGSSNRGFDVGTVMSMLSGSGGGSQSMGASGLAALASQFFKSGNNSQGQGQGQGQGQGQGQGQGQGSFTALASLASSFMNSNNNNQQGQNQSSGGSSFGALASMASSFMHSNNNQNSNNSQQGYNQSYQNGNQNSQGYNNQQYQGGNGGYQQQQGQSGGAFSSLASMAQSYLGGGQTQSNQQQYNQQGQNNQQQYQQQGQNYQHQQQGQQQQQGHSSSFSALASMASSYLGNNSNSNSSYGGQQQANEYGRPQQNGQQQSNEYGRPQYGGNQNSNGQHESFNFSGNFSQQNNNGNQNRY
# T3: Sis1-E53K premixed with denatured Rnq1 (yeast, UniProt P25294 1-352; P25367 1-405, E53K)
# T3 construct: also called Sis1-FLRnq1 complex (E53K)
# T3 sequence (looked up) 1: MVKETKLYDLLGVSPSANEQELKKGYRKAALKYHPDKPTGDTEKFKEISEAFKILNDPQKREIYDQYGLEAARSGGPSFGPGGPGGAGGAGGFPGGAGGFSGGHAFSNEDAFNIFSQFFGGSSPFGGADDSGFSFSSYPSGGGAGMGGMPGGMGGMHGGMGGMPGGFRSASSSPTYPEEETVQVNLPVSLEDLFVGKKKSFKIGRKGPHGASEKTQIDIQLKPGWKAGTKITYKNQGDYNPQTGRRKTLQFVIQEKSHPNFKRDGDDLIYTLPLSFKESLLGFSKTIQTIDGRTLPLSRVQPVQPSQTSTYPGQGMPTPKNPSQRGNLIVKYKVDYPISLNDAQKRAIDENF
# T3 sequence (looked up) 2: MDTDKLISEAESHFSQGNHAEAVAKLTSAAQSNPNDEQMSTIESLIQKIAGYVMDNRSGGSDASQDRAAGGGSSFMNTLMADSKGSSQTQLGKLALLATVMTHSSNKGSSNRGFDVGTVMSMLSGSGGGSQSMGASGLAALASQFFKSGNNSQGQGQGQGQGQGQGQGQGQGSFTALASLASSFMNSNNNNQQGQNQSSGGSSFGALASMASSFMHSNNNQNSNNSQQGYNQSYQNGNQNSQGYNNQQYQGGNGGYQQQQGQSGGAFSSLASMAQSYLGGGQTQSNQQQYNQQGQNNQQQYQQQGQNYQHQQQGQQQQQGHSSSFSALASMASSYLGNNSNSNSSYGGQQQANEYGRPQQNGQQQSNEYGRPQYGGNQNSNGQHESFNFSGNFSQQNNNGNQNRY
# T4: Sis1-E53A premixed with denatured Rnq1 (yeast, UniProt P25294 1-352; P25367 1-405, E53A)
# T4 construct: also called Sis1-FLRnq1 complex (E53A)
# T4 sequence (looked up) 1: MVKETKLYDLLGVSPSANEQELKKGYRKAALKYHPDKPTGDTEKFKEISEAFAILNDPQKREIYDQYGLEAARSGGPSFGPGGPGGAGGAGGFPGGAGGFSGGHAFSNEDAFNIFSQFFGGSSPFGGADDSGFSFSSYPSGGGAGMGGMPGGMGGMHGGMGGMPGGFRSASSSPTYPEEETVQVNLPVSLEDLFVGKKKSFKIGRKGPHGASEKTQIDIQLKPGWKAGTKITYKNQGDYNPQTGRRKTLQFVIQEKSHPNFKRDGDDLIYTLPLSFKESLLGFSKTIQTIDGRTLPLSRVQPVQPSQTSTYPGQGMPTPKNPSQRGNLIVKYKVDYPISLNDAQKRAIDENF
# T4 sequence (looked up) 2: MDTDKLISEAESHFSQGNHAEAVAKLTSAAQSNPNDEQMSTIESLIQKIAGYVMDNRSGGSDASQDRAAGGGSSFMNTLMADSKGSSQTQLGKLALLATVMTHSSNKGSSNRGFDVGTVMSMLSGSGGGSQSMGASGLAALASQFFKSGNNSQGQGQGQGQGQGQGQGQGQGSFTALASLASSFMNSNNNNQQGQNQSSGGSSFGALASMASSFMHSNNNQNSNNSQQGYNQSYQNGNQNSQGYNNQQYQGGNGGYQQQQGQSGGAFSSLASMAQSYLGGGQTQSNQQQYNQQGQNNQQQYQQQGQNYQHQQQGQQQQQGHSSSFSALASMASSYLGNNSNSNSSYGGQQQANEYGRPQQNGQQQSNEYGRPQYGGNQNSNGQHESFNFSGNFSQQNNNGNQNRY
# T5: Sis1-N56L premixed with denatured Rnq1 (yeast, UniProt P25294 1-352; P25367 1-405, N56L)
# T5 construct: also called Sis1-FLRnq1 complex (N56L)
# T5 sequence (looked up) 1: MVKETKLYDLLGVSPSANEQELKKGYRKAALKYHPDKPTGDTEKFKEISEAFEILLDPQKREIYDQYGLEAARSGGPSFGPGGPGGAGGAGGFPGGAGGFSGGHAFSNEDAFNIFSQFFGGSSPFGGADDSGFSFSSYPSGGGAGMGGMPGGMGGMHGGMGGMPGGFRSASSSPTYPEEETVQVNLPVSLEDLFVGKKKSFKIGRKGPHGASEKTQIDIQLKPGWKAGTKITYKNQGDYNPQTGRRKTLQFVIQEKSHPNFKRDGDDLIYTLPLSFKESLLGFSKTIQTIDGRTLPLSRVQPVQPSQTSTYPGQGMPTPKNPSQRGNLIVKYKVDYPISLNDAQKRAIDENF
# T5 sequence (looked up) 2: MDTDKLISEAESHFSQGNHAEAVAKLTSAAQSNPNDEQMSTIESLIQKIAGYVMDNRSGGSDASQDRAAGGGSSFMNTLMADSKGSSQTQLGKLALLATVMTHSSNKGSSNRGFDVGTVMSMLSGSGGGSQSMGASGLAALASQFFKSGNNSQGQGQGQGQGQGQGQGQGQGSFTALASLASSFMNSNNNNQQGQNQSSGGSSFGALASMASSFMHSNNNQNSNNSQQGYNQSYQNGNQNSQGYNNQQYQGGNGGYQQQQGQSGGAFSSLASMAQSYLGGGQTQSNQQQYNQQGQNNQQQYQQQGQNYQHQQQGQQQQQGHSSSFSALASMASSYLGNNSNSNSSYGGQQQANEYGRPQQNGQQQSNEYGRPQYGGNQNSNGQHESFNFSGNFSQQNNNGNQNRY
# T6: full-length Rnq1 (yeast, UniProt P25367 1-405)
# T6 construct: also called FL Rnq1; Rnq1-WT
# T6 sequence (looked up): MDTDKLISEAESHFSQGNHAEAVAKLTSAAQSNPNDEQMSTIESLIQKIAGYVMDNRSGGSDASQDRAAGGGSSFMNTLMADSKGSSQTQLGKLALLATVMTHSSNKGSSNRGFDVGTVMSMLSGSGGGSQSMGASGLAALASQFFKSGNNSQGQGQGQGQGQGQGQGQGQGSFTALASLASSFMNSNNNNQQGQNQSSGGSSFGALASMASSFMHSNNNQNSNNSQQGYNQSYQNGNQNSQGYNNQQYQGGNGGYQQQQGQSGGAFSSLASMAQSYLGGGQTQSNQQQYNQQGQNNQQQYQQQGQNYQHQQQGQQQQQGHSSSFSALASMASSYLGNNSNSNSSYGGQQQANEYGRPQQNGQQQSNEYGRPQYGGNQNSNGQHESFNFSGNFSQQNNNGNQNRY
# B1: Ssa1-WT (natural protein)
# chain: not shown
# notes: Ssa1, yeast Hsp70; Cloned into pPROEx-Htb; cleavage of the tag follows from 'the remaining purification steps were analogous to those for Sis1-WT'; also called Hsp70; source: E. coli Rosetta 2(DE3), purified (Talon resin, steps analogous to Sis1)
# Experiments:
# Settings in all cases: both partners purified
# [1] = target: T1, Sis1-FLRnq1 complex (Sis1-WT premixed …); assay: ELISA; denatured Rnq1 premixed with Sis1-WT or mutants (5 nM), 1 h room temperature, adsorbed onto wells; dilutions of Ssa1-WT (0-20 nM); bound Ssa1 detected with an anti-Ssa1 (Hsp70) antibody
# [2] = target: T2, Sis1-S49V premixed with denatured Rnq1; assay: as above
# [3] = target: T3, Sis1-E53K premixed with denatured Rnq1; assay: as above
# [4] = target: T4, Sis1-E53A premixed with denatured Rnq1; assay: as above
# [5] = target: T5, Sis1-N56L premixed with denatured Rnq1; assay: as above
# full-length Rnq1 = target: T6, full-length Rnq1; assay: ELISA; denatured substrate (FL Rnq1 or ΔN Rnq1 400 ng, luciferase 100 ng) immobilised in microtiter wells; dilutions of Sis1-WT or mutants (0-20 or 0-25 nM) in PBS-T with 0.5% BSA, overnight at room temperature; retained Sis1 detected with an anti-Sis1 antibody
# Ssa1-WT = target: B1; assay: ELISA; Ssa1 (200 nM) immobilised in microtiter wells; dilutions of Sis1-WT or mutants (0-50 nM); bound Sis1 detected with an anti-Sis1 antibody; no client
# Chain of Ssa1-WT (P10591 whole entry): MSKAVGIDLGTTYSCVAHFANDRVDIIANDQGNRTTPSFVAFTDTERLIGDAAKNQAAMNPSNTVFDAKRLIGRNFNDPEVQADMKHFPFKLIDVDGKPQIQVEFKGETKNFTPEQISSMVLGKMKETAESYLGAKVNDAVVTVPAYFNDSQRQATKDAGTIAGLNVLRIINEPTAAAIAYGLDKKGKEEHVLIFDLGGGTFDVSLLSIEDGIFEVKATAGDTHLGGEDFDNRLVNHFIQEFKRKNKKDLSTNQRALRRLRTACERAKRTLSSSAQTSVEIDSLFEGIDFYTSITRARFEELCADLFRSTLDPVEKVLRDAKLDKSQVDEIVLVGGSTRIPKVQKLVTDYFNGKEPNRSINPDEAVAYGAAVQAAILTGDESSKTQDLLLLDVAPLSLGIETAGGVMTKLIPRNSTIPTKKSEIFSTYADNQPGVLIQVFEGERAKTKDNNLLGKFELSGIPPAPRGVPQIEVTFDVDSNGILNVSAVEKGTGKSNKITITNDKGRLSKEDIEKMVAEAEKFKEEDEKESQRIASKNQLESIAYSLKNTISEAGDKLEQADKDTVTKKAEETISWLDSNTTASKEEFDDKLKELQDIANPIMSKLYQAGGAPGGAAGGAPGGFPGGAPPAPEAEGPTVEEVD
binding result [1],binding result [2],binding result [3],binding result [4],binding result [5],binding result (full-length Rnq1),binding result (Ssa1-WT),Binder
binds,binds,binds,binds,binds,,,B1
,,,,,binds,binds,"Sis1-WT (natural protein, yeast, UniProt P25294 1-352, looked up, Sis1, essential yeast DNAJ (Hsp40) protein, homolog of human DNAJB6; Cloned into pPROEx-Htb (hexa-His-tag, TEV site); also called Hsp40; wild-type Sis1; source: E. coli Lemo21(DE3), purified (Talon cobalt resin, TEV cleavage, second Talon pass)) MVKETKLYDLLGVSPSANEQELKKGYRKAALKYHPDKPTGDTEKFKEISEAFEILNDPQKREIYDQYGLEAARSGGPSFGPGGPGGAGGAGGFPGGAGGFSGGHAFSNEDAFNIFSQFFGGSSPFGGADDSGFSFSSYPSGGGAGMGGMPGGMGGMHGGMGGMPGGFRSASSSPTYPEEETVQVNLPVSLEDLFVGKKKSFKIGRKGPHGASEKTQIDIQLKPGWKAGTKITYKNQGDYNPQTGRRKTLQFVIQEKSHPNFKRDGDDLIYTLPLSFKESLLGFSKTIQTIDGRTLPLSRVQPVQPSQTSTYPGQGMPTPKNPSQRGNLIVKYKVDYPISLNDAQKRAIDENF"
,,,,,binds,binds,"Sis1-E53K (natural protein, yeast, UniProt P25294 1-352, looked up, Sis1, essential yeast DNAJ (Hsp40) protein, with the J-domain mutation E53K; also called homologous to DNAJB6-E54K; LGMDD1 J-domain mutant; source: E. coli Lemo21(DE3), purified (Talon cobalt resin, TEV cleavage, second Talon pass)) MVKETKLYDLLGVSPSANEQELKKGYRKAALKYHPDKPTGDTEKFKEISEAFKILNDPQKREIYDQYGLEAARSGGPSFGPGGPGGAGGAGGFPGGAGGFSGGHAFSNEDAFNIFSQFFGGSSPFGGADDSGFSFSSYPSGGGAGMGGMPGGMGGMHGGMGGMPGGFRSASSSPTYPEEETVQVNLPVSLEDLFVGKKKSFKIGRKGPHGASEKTQIDIQLKPGWKAGTKITYKNQGDYNPQTGRRKTLQFVIQEKSHPNFKRDGDDLIYTLPLSFKESLLGFSKTIQTIDGRTLPLSRVQPVQPSQTSTYPGQGMPTPKNPSQRGNLIVKYKVDYPISLNDAQKRAIDENF"
